Source: PMC5492076, “β-Cyanoalanine Synthases and Their Possible Role in Pierid Host Plant Adaptation” (Insects, 2017)

Substrate: N[C@@H](CS)C(=O)O
Experiment: colorimetric sulfide formation, Michaelis-Menten fit
Assay type: biochemical, Aporia crataegi
Conditions: 6 mM KCN, 20 µM pyridoxal-5'-phosphate, Tris-HCl pH 8.5, 31 °C, 10 min
Description: colorimetric sulfide formation, Michaelis-Menten fit on AcrBSAS3

B1: AcrBSAS3 (Aporia crataegi) (protein)
chain: MTNAISVSNEIKASALELIGNTPLLALDRLHPGPGRILVKCEFMNPGGSLKCRSSLHMIQKARERGELKPGGDVVEVTSGNQGCGLGVVCSVLGHPLTVTMSKGNSIQRALHMEALGAKCIRYPLVKGTYGNVTFADVEPALEGAMKMSEETGAFFVKQMANPDNIEAHYETTGPEIWRQSGHRVDAFVTAVGTSGTFTGVSKYLKEQNPEIQCFVVEPEGSQPLKGCPITKPLHMLQGASYGVVPDLFNPDLMEDSISVTDEESVHYKDLLGTKEGLFVGYTSGANVAAAVKLLNSGKLPKDAWVVTILSDTGLKYTPVPDNLIE
notes: N-terminal Strep-tag, E. coli BL21(DE3) pLysS; Strep-Tactin purified
B1 was tested, and the Km was 1.31 (±0.08) mM and the Vmax was 1.12 µmol/min/mg.
